# Data taken from US20240209089A1 (SUZHOU SMARTNUCLIDE BIOPHARMACEUTICAL, published 2024).
# Residue numbers refer to the chain shown, from its start.
# B1: anti-CD8α single domain antibody S7 (VHH, not shown: small tags and cut ends)
# VHH: QLQLVESGGGLVQPGGSLRLSCAASGSIFSINGMGWYRQAPGKQREAVAVITSGGKIDYLDSVKGRFTISRDSAKNTVALQMNSLKPEDTAVYYCNAYGDVRRGEVRWGQGTQVTVSS
# notes: Only the E. coli expression is described for this antibody
# B2: anti-CD8α single domain antibody S23 (VHH, not shown: small tags and cut ends)
# VHH: B1 VHH with L2V, A47L, V50A, I57T, R102Q
# notes: as for B1
# B3: anti-CD8α single domain antibody S6 (VHH, not shown: small tags and cut ends)
# VHH: QVQLVESGGGLVQPGGSLRLSCAVSGTIFSINTMGWYRQVPGKQRELVATITSSGSTKYADSVKGRFTVSRDNAKRTVFLQMDSLKPEDTAVYYCHANDVGWGTVNAWGQGTLVTVSS
# notes: as for B1
# B4: anti-CD8α single domain antibody S22 (VHH, not shown: small tags and cut ends)
# VHH: QLQLVESGGGLVQPGGSLRLSCAASGSIFSINTMGWYRQAPGKQRELVATMHSTGSTNYADSVKGRFTISRDNAKKTVYLQMNSLKPDDTAVYYCHVDDMGWGTVDSWGQGTQVTVSS
# notes: as for B1
# B5: anti-CD8α single domain antibody S32 (VHH, not shown: small tags and cut ends)
# VHH: B4 VHH
# notes: as for B1
# B6: anti-CD8α single domain antibody S18 (VHH, not shown: small tags and cut ends)
# VHH: QLQLVESGGGLVQPGGSLRLSCAASGSIFSINTMGWYRQAPGKQRELVATMTSHGSTNYADSVKGRFTISRDNSKNTVYLQMNSLKLQDTAVYYCNANDMGWGTVDAWGQGTLVTVSS
# notes: as for B1
# B7: anti-CD8α single domain antibody C30 (VHH, not shown: small tags and cut ends)
# VHH: B4 VHH with L2V, A23V, S30A, T50D, T77K, M100R
# notes: as for B1
# B8: anti-CD8α single domain antibody C45 (VHH, not shown: small tags and cut ends)
# VHH: B4 VHH with L2V, S27P, A40V, M100T
# notes: as for B1
# B9: anti-CD8α single domain antibody C20 (VHH, not shown: small tags and cut ends)
# VHH: QVQLVESGGGLVQPGGSLRLSCAASGSIFSINTMGWYRQAPGKQRELVATMHSTGSTNYADSVKGRFTISRDNAKKTVYLQMNSLEPDDTAVYYCHVDDTGWGTVDSWGQGTQVTVS
# notes: as for B1
# B10: phage clone No. 55 (S7) (VHH)
# VHH: B1 VHH
# B11: phage clone No. 71 (S23) (VHH)
# VHH: B1 VHH with L2V, A47L, V50A, I57T, R102Q
# B12: phage clone No. 42 (C42) (VHH)
# VHH: QVQLVESGGGLVQAGGSLRLSCAASGLTFEDYAIGWFRQAPGKEREGISCIRIYDGNTYSAESVKGRFTISSDNAKNQVYLQINTLKPEDTAVYYCAAGSYYSCSVYPDYDMDYWGKGTLVTVSS
# B13: phage clone No. 37 (C37) (VHH)
# VHH: B12 VHH with V2L
# B14: phage clone No. 2 (C2) (VHH)
# VHH: B12 VHH with A14P, L27F, F29L, E30D, D31Y
# B15: phage clone No. 29 (C29) (VHH)
# VHH: QVQLVESGGGLVQAGGSLRLSCVASGFTSDDYVIGWFRQAPGKEREGVSCISSSDGTTNYADSVKGRFTISSDNAKNTVYLQMNSLKPEDTAVYYCAADPMRVCPYSGTYYGILGFGTSGQGTQVTVSS
# B16: phage clone No. 77 (S29) (VHH)
# VHH: QLQLVESGGGLVQPGGSLRLSCTASGIIFSINTMGWYRQAPGKQRELVADISSFGSTNYADSVKGRFTISRDNAKNSVYLQMNSLKPEDTAVYYCNAHDKGWGTVDSWGQGTQVTVSS
# B17: phage clone No. 54 (S6) (VHH)
# VHH: B3 VHH
# B18: phage clone No. 70 (S22) (VHH)
# VHH: B4 VHH
# B19: phage clone No. 66 (S18) (VHH)
# VHH: B6 VHH
# B20: phage clone No. 45 (C45) (VHH)
# VHH: B4 VHH with L2V, S27P, A40V, M100T
# B21: phage clone No. 61 (S13) (VHH)
# VHH: B4 VHH with A23V, A24V, S30A, T54Y, D88A, V97A, M100T
# B22: phage clone No. 24 (C24) (VHH)
# VHH: B4 VHH with L2V, S27P, M100T, T112I
# B23: phage clone No. 27 (C27) (VHH)
# VHH: B4 VHH with A23V, A24V, S30A, T54G, N73A, K75P, D88A, V97A, M100S, T112I
# B24: phage clone No. 30 (C30) (VHH)
# VHH: B4 VHH with L2V, A23V, S30A, T50D, T77K, M100R
# B25: phage clone No. 53 (S5) (VHH)
# VHH: QVQLVESGGGLVQAGGSLRVSCAASGGTFSSTAMGWFRQAPGKEREFVAAISWSGGYTYYADSVRGRFTISRDNALNTVSLQMNSLKPEDTAVYYCAADISGLDTVAAGIFTEPNIDYWGKGTLVTVSS
# B26: phage clone No. 46 (C46) (VHH)
# VHH: QVQLVESGGGLVQAGGSLRLSCAASGVTFDDLAIGWFRQVPGKGREGVSTIGTSDGTAYYADSVKGRFTISSDNAKNTVYLQMNSLKPEDTAVYYCAVDLDYGLGSLLPMGYDYWGQGTQVTVSS
# B27: phage clone No. 20 (C20) (VHH)
# VHH: B9 VHH
# Target: T1, human CD8α full-length protein (human, UniProt P01732 22-235)
# T1 construct: whole, on cells; The same entry is used for MC38-CD8α transfectants and for human CD8+ T cells from peripheral blood; the assay field says which cells; also called cell surface CD8α; MC38-CD8α cells
# T1 sequence (P01732 22-235): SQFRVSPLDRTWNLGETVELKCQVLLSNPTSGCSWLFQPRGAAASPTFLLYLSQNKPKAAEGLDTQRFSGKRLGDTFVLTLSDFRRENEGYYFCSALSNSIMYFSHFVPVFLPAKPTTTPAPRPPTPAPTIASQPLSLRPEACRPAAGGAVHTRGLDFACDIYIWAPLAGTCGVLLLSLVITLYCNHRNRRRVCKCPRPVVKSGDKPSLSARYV
# Test: flow cytometry on MC38-CD8α cells, secondary antibody-PE
# Method: Mouse colon cancer MC38 cell lines stable transfected with human CD8α full-length protein gene were constructed to obtain MC38 cells (MC38-CD8α cells) stably expressing human CD8α proteins on the cell membrane. Prior to use, the cells were cultured to >90% convergence. The anti-CD8α single domain antibody was used to perform flow cytometry on these cells for quantitative analysis of indirect immunofluorescence staining so as to determine the quantity of receptors on surface of each cell.
# The cells were collected and suspended to a concentration of 2.5×10⁶ cells/mL. 200 μL of cell aliquot samples were mixed with 20 μL of primary antibody, and the obtained mixture was incubated for 30 min on ice. The cells were centrifuged, washed and re-suspended, then 5 μL of secondary antibody-PE conjugate was added, and then the above mixture was incubated for 30 minutes on ice. The cells were washed twice, re-suspended and underwent flow cytometry on BD FACSCelesta™. For each tube, at least 5×10⁴ events were collected. All the analyses were single colors, and PE was detected in […].
row,Binder,Positive rate (%)
1,B1,99.3%
2,B2,99.3%
3,B3,97.5%
4,B4,97%
5,B5,99.1%
6,B6,99.2%
7,B7,98.8%
8,B8,99.1%
9,B9,98.9%

# Target: T2, CD8α-Fc fusion protein (human)
# T2 construct: also called CD8 α-Fc protein; CD8α-Fc tag antigen
# T2 sequence (chain, as listed by the source): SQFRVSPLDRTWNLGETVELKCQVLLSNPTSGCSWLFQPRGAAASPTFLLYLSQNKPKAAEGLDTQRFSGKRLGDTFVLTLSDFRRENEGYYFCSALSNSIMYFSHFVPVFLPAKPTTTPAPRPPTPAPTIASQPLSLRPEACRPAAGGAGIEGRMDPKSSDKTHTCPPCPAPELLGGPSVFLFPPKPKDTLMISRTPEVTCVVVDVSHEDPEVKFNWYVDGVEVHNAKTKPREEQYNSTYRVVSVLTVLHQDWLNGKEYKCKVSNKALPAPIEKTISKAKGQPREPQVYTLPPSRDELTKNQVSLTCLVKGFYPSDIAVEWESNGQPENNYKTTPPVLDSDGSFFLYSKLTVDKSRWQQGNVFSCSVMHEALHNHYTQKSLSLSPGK
# Test: phage ELISA on coated CD8α-Fc
# Method: After 3-4 rounds of panning, 96 clones were randomly picked from the plate subjected to the last round of panning for identification. 96 single colonies were randomly picked and respectively cultured to produce and purify phages. The plate was coated with CD8α-Fc fusion protein at 4° C. overnight, then blocked with 3% BSA, and reacted for 1 hour at 37° C. Subsequently, the phage supernatant obtained after infection was added into each well (the control group was blank phage), and incubated for 1 hour at 37° C. After PBST washing, horseradish peroxidase labeled anti-M13 secondary antibody (purchased from Beijing Yiqiao Shenzhou Biotechnology Co., Ltd.) was added, and reacted for 1 hour at room temperature. After washing, a tetramethylbenzidine (TMB) chromogenic solution was added and an absorption value at 450 nm was read. Meanwhile, the plate was coated with an Fc protein at 4° C. overnight, blocked with 3% BSA, and reacted for 1 hour at 37° C. After washing, the phage supernatant obtained after infection (the control group was blank phage) was added to react for 1 hour at 37° C. After washing, the horseradish peroxide labeled anti-M13 secondary antibody (purchased from Beijing Yiqiao Shenzhou Biotechnology Co., Ltd.) was added to react for 1 hour at room temperature. After that, a TMB chromogenic solution was added and an absorption value at 450 nm was read. Where, when a ratio obtained by an OD value being divided by an OD value of blank control was >=4, it was judged that a candidate antibody could bind the CD8α-Fc protein; meanwhile, a ratio obtained by the CD8α-Fc binding OD value of the above antibody capable of binding the CD8 α-Fc antigen protein being divided by the Fc protein binding OD value was >=5, it was considered that the candidate antibody could specifically bind the CD8α part rather than the Fc part. […] The bacteria in candidate clone well were transferred to an LB liquid culture medium containing 100 μg/mL ampicillin so as to perform plasmid extraction and sequencing.
row,Binder,OD450
1,B10,1.61
2,B11,1.62
3,B12,3.18
4,B13,3.2
5,B14,3.21
6,B15,1.75
7,B16,1.63
8,B17,1.3
9,B18,1.73
10,B19,1.72
11,B20,2.42
12,B21,1.71
13,B22,2.35
14,B23,2.74
15,B24,2.03
16,B25,1.2
17,B26,2.35
18,B27,3.19
